{"source": "patent US20210054097A1", "about": "(Novo Nordisk, published 2021)", "binders": {"B1": {"name": "Nb 721E08 (VHH)", "VHH": "EVQLVESGGGVVQPGGSLRLSCAASGRTFSTYSMGWFRQAPGKEREFVAAITRRGSRTYYADSVKGRFTISRDNSKNTVYLQMNSLRPEDTALYYCAADRRPADSYLDYWGQGTLVTVSS", "notes": "monovalent Nanobody; not shown: C-terminal FLAG3 and HIS6 tag"}}, "key": {"[1]": {"molecular_target": "T1, human plasma-derived Factor X zymogen (human, UniProt P00742 41-179; P00742 183-488)", "T1 construct": "Plasma-derived, bought (Haematologic Technologies); also called FX; human FX", "T1 sequence (P00742 41-179, chain 1 of 2)": "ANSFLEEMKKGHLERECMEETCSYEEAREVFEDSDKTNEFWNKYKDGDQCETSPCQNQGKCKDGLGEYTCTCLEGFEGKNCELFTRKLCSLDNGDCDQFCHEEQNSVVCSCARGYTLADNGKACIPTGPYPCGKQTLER", "T1 sequence (P00742 183-488, chain 2 of 2)": "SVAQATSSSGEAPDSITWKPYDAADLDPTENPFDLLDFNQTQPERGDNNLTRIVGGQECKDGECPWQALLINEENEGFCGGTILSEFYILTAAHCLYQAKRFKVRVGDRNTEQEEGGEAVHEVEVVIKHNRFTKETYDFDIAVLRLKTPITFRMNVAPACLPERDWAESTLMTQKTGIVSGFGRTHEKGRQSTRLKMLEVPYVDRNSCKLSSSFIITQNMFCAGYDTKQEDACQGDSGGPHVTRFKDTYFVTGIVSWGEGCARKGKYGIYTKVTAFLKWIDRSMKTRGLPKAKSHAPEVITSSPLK", "experiment": "apparent KD fitted from FXa generation assay", "experimental": "The ability of the monovalent anti-FX Nanobody® (Nb) to promote FIXa-mediated FX-activation was determined in the presence of a procoagulant phospholipid membrane according to the principles described by Scheiflinger et al. (2008) J Thromb Haemost, 6:315-322. A Fab of mAb 13F62 (IgG1 isotype, variable sequences identified by SEQ ID NO:6 and 7), also found to bind the activation peptide, were included for comparison. Moreover, anti-FX antibodies as disclosed in U.S. Pat. No. 9,334,331 (J327 and L404-k in said publication), corresponding to the anti-FX arm of ACE910); and more recently in WO2018/021450 (J327 D31H and JYL280 in said publication) and WO2018/098363 (BIIB-12-917 represented by SEQ ID NO:427 and 615 in said publication) are stated to be suitable for use as part of anti-FIX/anti-FX bispecific FVIII mimetic compounds were, furthermore, included for comparison.\nEach compound was tested individually in a concentration range from 0-1000 nM, 0-2000 nM, 0-4000 nM or 0-8000 nM by pre-incubation with 1-1.5 nM human plasma-derived FIXa (Haematologic Technologies Inc, USA) and 500 μM 25:75 phosphatidyl serine:phosphatidyl choline phospholipid vesicles (Haematologic Technologies Inc, USA) in assay buffer (50 mM HEPES, 100 mM NaCl, 5 mM CaCl₂, 0.1% (w/v) PEG8000, 1 mg/mL bovine serum albumin, pH 7.3) for 10 minutes. The reaction was initiated by addition of human plasma-derived FX (Haematologic Technologies Inc, USA) to a final concentration of 100 nM and a reaction volume of 50 μL. Following 20 minutes activation at room temperature while agitated (1000 RPM), the reaction was quenched by addition of 25 μL quench buffer (50 mM HEPES, 100 mM NaCl, 60 mM EDTA, 0.1% (w/v) PEG8000, 1 mg/mL bovine serum albumin, pH 7.3). The amount of FXa generated was determined by addition of 25 μL 2 mM S-2765 chromogenic substrate for FXa (Chromogenix, Sweden) and chromogenic substrate conversion was followed by measuring absorbance at 405 nm for 10 minutes in a microplate reader. The observed change in 405 nm absorbance (ΔAbs405/min) was fitted to the quadratic binding equation (eq. 1) to obtain the peak stimulatory activity and EC50."}, "[2]": {"molecular_target": "T2, FX activation peptide 12-mer QTQPERGDNNLT (human)", "T2 peptide": "QTQPERGDNNLT-biotin", "experiment": "peptide ELISA", "experimental": "(§1) The peptides were C-terminally conjugated to biotin and 50 μL of 1 μg/mL peptide solution was used for immobilization in discrete wells of the microtiter plate which was pre-coated with 1 μg/mL streptavidin. Each well was washed with washing buffer (10 mM Tris, 150 mM NaCl, 2.5 mM CaCl₂, 0.05% Tween 20, pH 8.60) followed by addition of 50 μL of 2 μg/mL FLAG-tagged anti-FX Nanobody® or IgG antibody to be tested. After 1 hour non-bound Nanobody®/antibody was washed off using washing buffer.\n(§2) Bound anti-FX activation peptide ligand was detected by first binding a HRP-labelled secondary antibody (for FLAG-tagged Nanobodies: Anti-FLAG mAb M2-Peroxidase (HRP) (Sigma Aldrich, US), for antibody: Fcγ Fragment Specific Peroxidase AffiniPure F(ab′)₂ Fragment Goat Anti-Human IgG (Jackson ImmunoResearch Laboratories, Inc., US), or Peroxidase AffiniPure Goat Anti-Mouse IgG (Jackson ImmunoResearch Laboratories, Inc., US)) for 1 hour, and then adding 100 μL TMB-1 ELISA substrate (Kem-En-Tec Diagnostics, Denmark)."}, "[3]": {"molecular_target": "T3, FX activation peptide 12-mer AQATSSSGEAPD (human)", "T3 peptide": "AQATSSSGEAPD-biotin", "experiment": "peptide ELISA", "experimental": "as §1, §2"}, "[4]": {"molecular_target": "T4, FX activation peptide 12-mer AADLDPTENPFD (human)", "T4 peptide": "AADLDPTENPFD-biotin", "experiment": "peptide ELISA", "experimental": "as §1, §2"}, "[5]": {"molecular_target": "T5, FX activation peptide 12-mer KPYDAADLDPTE (human)", "T5 peptide": "KPYDAADLDPTE-biotin", "experiment": "peptide ELISA", "experimental": "as §1, §2"}, "[6]": {"molecular_target": "T6, FX activation peptide 12-mer WKPYDAADLDPT (human)", "T6 peptide": "WKPYDAADLDPT-biotin", "experiment": "peptide ELISA", "experimental": "as §1, §2"}, "[7]": {"molecular_target": "T7, FX activation peptide 12-mer SSSGEAPDSITW (human)", "T7 peptide": "SSSGEAPDSITW-biotin", "experiment": "peptide ELISA", "experimental": "as §1, §2"}, "[8]": {"molecular_target": "T8, FX activation peptide 12-mer LDFNQTQPERGD (human)", "T8 peptide": "LDFNQTQPERGD-biotin", "experiment": "peptide ELISA", "experimental": "as §1, §2"}, "[9]": {"molecular_target": "T9, FX activation peptide 12-mer QATSSSGEAPDS (human)", "T9 peptide": "QATSSSGEAPDS-biotin", "experiment": "peptide ELISA", "experimental": "as §1, §2"}, "[10]": {"molecular_target": "T10, FX activation peptide 12-mer ADLDPTENPFDL (human)", "T10 peptide": "ADLDPTENPFDL-biotin", "experiment": "peptide ELISA", "experimental": "as §1, §2"}, "[11]": {"molecular_target": "T11, FX activation peptide 12-mer TQPERGDNNLTR (human)", "T11 peptide": "TQPERGDNNLTR-biotin", "experiment": "peptide ELISA", "experimental": "as §1, §2"}, "[12]": {"molecular_target": "T1, human plasma-derived Factor X zymogen", "experiment": "cell-based or functional assay"}, "[13]": {"molecular_target": "human activated Factor X (human, UniProt P00742 41-179; P00742 235-488)", "sequence (P00742 41-179, chain 1 of 2)": "as the sequence (P00742 41-179, chain 1 of 2) above", "sequence (P00742 235-488, chain 2 of 2)": "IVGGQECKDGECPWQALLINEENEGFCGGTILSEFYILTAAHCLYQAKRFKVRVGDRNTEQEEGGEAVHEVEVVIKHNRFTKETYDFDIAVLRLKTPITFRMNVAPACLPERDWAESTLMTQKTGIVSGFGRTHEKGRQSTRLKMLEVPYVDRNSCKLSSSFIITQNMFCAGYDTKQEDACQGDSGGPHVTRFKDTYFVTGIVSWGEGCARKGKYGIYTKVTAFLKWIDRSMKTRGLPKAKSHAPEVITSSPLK", "experiment": "cell-based or functional assay"}}, "note": "Ends that are not written are not given here."}
{"binder": "B1", "values": [{"measurement": "Kd", "setting": "[1]", "value": "~1700", "unit": "nM"}, {"measurement": "ELISA signal relative to background", "setting": "[2]", "value": 1.96}, {"measurement": "ELISA signal relative to background", "setting": "[3]", "value": 1.92}, {"measurement": "ELISA signal relative to background", "setting": "[4]", "value": 2.22}, {"measurement": "ELISA signal relative to background", "setting": "[5]", "value": 1.89}, {"measurement": "ELISA signal relative to background", "setting": "[6]", "value": 1.83}, {"measurement": "ELISA signal relative to background", "setting": "[7]", "value": 1.99}, {"measurement": "ELISA signal relative to background", "setting": "[8]", "value": 2.21}, {"measurement": "ELISA signal relative to background", "setting": "[9]", "value": 1.97}, {"measurement": "ELISA signal relative to background", "setting": "[10]", "value": 2.34}, {"measurement": "ELISA signal relative to background", "setting": "[11]", "value": 1.97}, {"measurement": "Increase in FX activation (fold)", "setting": "[12]", "value": "> 25", "unit": "fold"}, {"measurement": "FXa amidolytic activity (relative to free FXa, fold)", "setting": "[13]", "value": 1.07, "unit": "fold"}]}
